Positions count from the first letter of the chain named.

B1: CD33/CD3 2×2 T-cell engager 05 (bispecific antibody)
chain: DIQMTQSPSSLSASVGDRVTITCRSSTGAVTTSNYANWVQQKPGKAPKGLIGGTNKRAPGVPARFSGSGSGTDFTLTISSLQPEDFATYYCALWYSNLWVFGQGTKVEIKGGSGGSQVQLVQSGAEVKKPGASVKVSCKASGYTFTSYDINWVRQAPGQGLEWMGWMNPNSGNTGFAQKFQGRVTMTRDTSTSTVYMELSSLRSEDTAVYYCARDRANTDYSFGMDVWGQGTLVTVSSGGSGGQSVLTQPPSASGTPGQRVTISCSGSRSNIGSNTVNWYQQLPGTAPKLLIYGNNQRPSGVPDRFSGSKSGTSASLAISGLQSEDEADYYCATWDDSLIGWVFGGGTKLTVLGGSGGSEVQLVESGGGLVQPGGSLRLSCAASGFTFSTYAMNWVRQAPGKGLEWVGRIRSKYNNYATYYADSVKDRFTISRDDSKNSLYLQMNSLKTEDTAVYYCARHGNFGNSYVSWFAYWGQGTLVTVSSAAAGSHHHHHH
notes: Non-covalent homodimer; also called 2×2 T-cell engager 5
B2: CD33/CD3 2×2 T-cell engager 10 (bispecific antibody)
chain: DIQMTQSPSSLSASVGDRVTITCRSSTGAVTTSNYANWVQQKPGKAPKGLIGGTNKRAPGVPSRFSGSLIGDKATLTISSLQPEDFATYYCALWYSNLWVFGQGTKVEIKGGSGGSQVQLVQSGAEVKKPGASVKVSCKASGYTFTSYDINWVRQAPGQGLEWMGWMNPNSGNTGFAQKFQGRVTMTRDTSTSTVYMELSSLRSEDTAVYYCARDRANTDYSFGMDVWGQGTLVTVSSGGSGQSVLTQPPSASGTPGQRVTISCSGSRSNIGSNTVNWYQQLPGTAPKLLIYGNNQRPSGVPDRFSGSKSGTSASLAISGLQSEDEADYYCATWDDSLIGWVFGGGTKLTVLGGSGGSEVQLVESGGGLVQPGGSLRLSCAASGFTFSTYAMNWVRQAPGKGLEWVGRIRSKYNNYATYYADSVKDRFTISRDDSKNSLYLQMNSLKTEDTAVYYCARHGNFGNSYVSWFAYWGQGTLVTVSSAAAGSHHHHHH
notes: Non-covalent homodimer
B3: CD33/CD3 2×2 T-cell engager 13 (bispecific antibody)
chain: B2 chain with D72T, K73D, A74F, N218V, S222Y, F223Y
notes: Non-covalent homodimer
B4: CD33/CD3 2×2 T-cell engager 09 (bispecific antibody)
chain: B2 chain with Y221F, F223Y
notes: Non-covalent homodimer; also called 2×2 T-cell engager 9
B5: CD33/CD3 2×2 T-cell engager 04 (bispecific antibody)
chain: B2 chain with S63A, L69G, I70S, D72T, K73D, A74F, F223L
notes: Non-covalent homodimer; also called 2×2 T-cell engager 4
B6: CD33/CD3 2×2 T-cell engager 15 (bispecific antibody)
chain: B2 chain with G49A, W469Y
notes: Non-covalent homodimer
B7: CD33/CD3 2×2 T-cell engager 02 (bispecific antibody)
chain: B2 chain with S63A, L69G, I70S, D72T, K73D, A74F, N218V, S222Y, F223Y
notes: Non-covalent homodimer; also called 2×2 T-cell engager 2
B8: CD33/CD3 2×2 T-cell engager 11 (bispecific antibody)
chain: B2 chain with F223L
notes: Non-covalent homodimer
B9: CD33/CD3 2×2 T-cell engager 01 (bispecific antibody)
chain: B2 chain with S63A, L69G, I70S, D72T, K73D, A74F, Y221F, F223Y
notes: Non-covalent homodimer; also called 2×2 T-cell engager 1
B10: CD33/CD3 2×2 T-cell engager 03 (bispecific antibody)
chain: B2 chain with S63A, L69G, I70S, D72T, K73D, A74F
notes: Non-covalent homodimer; also called 2×2 T-cell engager 3
B11: CD33/CD3 2×2 T-cell engager 08 (bispecific antibody)
chain: QSVLTQPPSASGTPGQRVTISCSGSRSNIGSNTVNWYQQLPGTAPKLLIYGNNQRPSGVPDRFSGSKSGTSASLAISGLQSEDEADYYCATWDDSLIGWVFGGGTKLTVLGGSGGSEVQLVESGGGLVQPGGSLRLSCAASGFTFSTYAMNWVRQAPGKGLEWVGRIRSKYNNYATYYADSVKDRFTISRDDSKNSLYLQMNSLKTEDTAVYYCARHGNFGNSYVSYFAYWGQGTLVTVSSGGSGGSDIQMTQSPSSLSASVGDRVTITCRSSTGAVTTSNYANWVQQKPGKAPKALIGGTNKRAPGVPSRFSGSLIGDKATLTISSLQPEDFATYYCALWYSNLWVFGQGTKVEIKGGSGGSQVQLVQSGAEVKKPGASVKVSCKASGYTFTSYDINWVRQAPGQGLEWMGWMNPNSGNTGFAQKFQGRVTMTRDTSTSTVYMELSSLRSEDTAVYYCARDRANTDFSYGMDVWGQGTLVTVSSAAAGSHHHHHH
notes: Non-covalent homodimer; also called 2×2 T-cell engager 8

T2 sequence (P07766 23-207, chain 1 of 4): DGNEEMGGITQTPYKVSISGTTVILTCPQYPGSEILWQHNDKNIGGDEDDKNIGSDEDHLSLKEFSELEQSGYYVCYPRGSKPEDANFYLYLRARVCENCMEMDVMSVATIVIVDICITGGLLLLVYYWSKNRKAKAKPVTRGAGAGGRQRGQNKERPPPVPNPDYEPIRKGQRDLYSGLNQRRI
T2 sequence (P09693 23-182, chain 2 of 4): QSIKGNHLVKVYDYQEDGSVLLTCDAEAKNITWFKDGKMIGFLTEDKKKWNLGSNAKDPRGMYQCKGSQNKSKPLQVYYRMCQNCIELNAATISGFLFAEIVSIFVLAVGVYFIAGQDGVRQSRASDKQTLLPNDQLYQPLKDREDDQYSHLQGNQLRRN
T2 sequence (P04234 22-171, chain 3 of 4): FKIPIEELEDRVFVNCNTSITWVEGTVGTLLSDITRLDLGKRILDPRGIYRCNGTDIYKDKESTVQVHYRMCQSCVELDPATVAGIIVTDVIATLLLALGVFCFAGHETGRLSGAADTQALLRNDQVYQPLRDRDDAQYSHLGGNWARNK
T2 sequence (P20963 22-164, chain 4 of 4): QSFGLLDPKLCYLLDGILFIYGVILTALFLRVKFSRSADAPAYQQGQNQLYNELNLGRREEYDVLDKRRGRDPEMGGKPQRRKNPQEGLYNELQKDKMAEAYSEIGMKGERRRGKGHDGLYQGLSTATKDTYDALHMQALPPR

The target of the first test is T1, human CD33 (human, UniProt P20138 18-364). Kind of test: cell-based or functional assay.
T1 sequence (P20138 18-364): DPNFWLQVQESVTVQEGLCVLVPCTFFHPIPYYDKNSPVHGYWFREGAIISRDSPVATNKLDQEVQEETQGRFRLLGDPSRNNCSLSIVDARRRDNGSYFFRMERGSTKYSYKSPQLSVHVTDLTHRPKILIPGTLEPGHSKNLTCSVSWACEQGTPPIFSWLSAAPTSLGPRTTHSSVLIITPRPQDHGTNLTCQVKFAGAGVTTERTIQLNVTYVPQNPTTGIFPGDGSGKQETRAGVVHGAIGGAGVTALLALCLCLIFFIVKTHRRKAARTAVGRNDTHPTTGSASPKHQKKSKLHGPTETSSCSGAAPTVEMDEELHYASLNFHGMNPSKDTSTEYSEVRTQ
As to B1, the “EC50 on HL-60 (cytotoxicity)” value was 2.7 pM.
In the case of B2, the “EC50 on HL-60 (cytotoxicity)” value turned out to be 7 pM.
Same read-out and setting: the same measure for B3: 1.1 pM; for B4: 6.8 pM; for B5: 1.8 pM.
With B6, the “EC50 on HL-60 (cytotoxicity)” value stood at 1.8 pM.
In the case of B7, the “EC50 on HL-60 (cytotoxicity)” value was found to be 0.5 pM.
Take B8: the “EC50 on HL-60 (cytotoxicity)” value turned out to be 5.9 pM.
B9: the “EC50 on HL-60 (cytotoxicity)” value was found to be 1.9 pM.
Consider B10, for which the “EC50 on HL-60 (cytotoxicity)” value is 3.6 pM.
As to B11, the “EC50 on HL-60 (cytotoxicity)” value worked out at 1.8 pM.

A further test concerns the target T2, human CD3 (human, UniProt P07766 23-207; P09693 23-182; P04234 22-171; P20963 22-164). Briefly: cell-based or functional assay.
As to B1, the “CD25 Induction EC50” value stood at 116 pM, the “CD69 Induction EC50” value was 74 pM and the “T cell Proliferation in PBMC EC50” value turned out to be 74 pM.
Turning to B2, the “CD25 Induction EC50” value worked out at 10 pM, the “CD69 Induction EC50” value turned out to be 6 pM and the “T cell Proliferation in PBMC EC50” value worked out at 6 pM.
B3: the “CD25 Induction EC50” value came to 30 pM, the “CD69 Induction EC50” value stood at 22 pM and the “T cell Proliferation in PBMC EC50” value is 23 pM.
Turning to B4, the “CD25 Induction EC50” value turned out to be 11 pM, the “CD69 Induction EC50” value was 7 pM and the “T cell Proliferation in PBMC EC50” value turned out to be 9 pM.
For B5, the “CD25 Induction EC50” value was determined as 94 pM, the “CD69 Induction EC50” value turned out to be 62 pM and the “T cell Proliferation in PBMC EC50” value was 44 pM.
Take B6: the “CD25 Induction EC50” value turned out to be 6 pM, the “CD69 Induction EC50” value stood at 7 pM and the “T cell Proliferation in PBMC EC50” value was found to be 7 pM.
Turning to B7, the “CD25 Induction EC50” value amounted to 42 pM, the “CD69 Induction EC50” value came to 27 pM and the “T cell Proliferation in PBMC EC50” value stood at 4 pM.
Consider B8, for which the “CD25 Induction EC50” value was 11 pM, the “CD69 Induction EC50” value stood at 5 pM and the “T cell Proliferation in PBMC EC50” value is 6 pM.
As to B9, the “CD25 Induction EC50” value worked out at 92 pM, the “CD69 Induction EC50” value is 91 pM and the “T cell Proliferation in PBMC EC50” value stood at 89 pM.
Consider B10, for which the “CD25 Induction EC50” value came out at 117 pM, the “CD69 Induction EC50” value worked out at 87 pM and the “T cell Proliferation in PBMC EC50” value was determined as 63 pM.

The next test has as its target T1, human CD33. Kind of test: flow cytometry, HL-60 cells.
Broadly, the Kd is the concentration at which binding is half-saturated. Higher therefore signals weaker binding. In turn, B1 showed a Kd of 1 nM.
As for B2, the Kd stood at 0.5 nM.
Same read-out and setting: the same measure for B3: 0.2 nM.
In turn, B4 had a Kd of 0.5 nM.
In turn, B5 registered a Kd of 0.5 nM.
On to B6, for which the Kd was 0.4 nM.
Same read-out and setting: the same measure for B7: 0.2 nM; for B8: 0.3 nM; for B9: 0.6 nM.
Same read-out and setting: the same measure for B10: 1.1 nM.

The target in another test is T2, human CD3. Kind of test: flow cytometry, human T-cells. (In flow cytometry, cells or beads pass a laser one at a time.)
Molecule B1 returned a Kd of 69.5 nM.
Molecule B2 showed a Kd of 1.9 nM.
On the same count and under the same terms, the same measure for B3: 55.7 nM.
B4 came in with a Kd of 2.4 nM.
Same read-out and setting: under B5 stands 79.3 nM.
B6: the Kd turned out to be 1.3 nM.
As for B7, the Kd turned out to be 69.8 nM.
As for B8, binding was put at a Kd of 2.6 nM.
On to B9, for which binding was put at a Kd of 94.2 nM. Compared with the last molecule, the Kd is about 36-fold higher.
B10: the Kd is 81.9 nM.

For another test, the target named is T1, human CD33. Kind of test: flow cytometry titration, KG-1 cells. On the procedure:
(§1) Cells were incubated with 100 μL of serial dilutions of CD33/CD3 2×2 T-cell engagers. After washing three times with FACS buffer the cells were incubated with 0.1 mL of 10 μg/mL mouse monoclonal anti-His antibody in the same buffer for 45 min on ice. After a second washing cycle, the cells were incubated with 0.1 mL of 15 μg/mL FITC-conjugated goat anti-mouse IgG antibodies under the same conditions as before. As a control, cells were incubated with the anti-His IgG followed by the FITC-conjugated goat anti-mouse IgG antibodies without anti-CD33 2×2 T-cell engagers. The cells were then washed again and resuspended in 0.2 mL of FACS buffer containing 2 μg/mL propidium iodide (PI) in order to exclude dead cells. The fluorescence of 1×10⁴ living cells was measured using a Beckman-Coulter FC500 MPL flow cytometer using the MXP software (Beckman-Coulter, Krefeld, Germany) or a Millipore Guava EasyCyte flow cytometer using the Incyte software (Merck Millipore, Schwalbach, Germany). Mean fluorescence intensities of the cell samples were calculated using CXP software (Beckman-Coulter, Krefeld, Germany) or Incyte software (Merck Millipore, Schwalbach, Germany). After subtracting the fluorescence intensity values of the cells stained with the secondary and tertiary reagents alone the values were used for calculation of the KD values with the equation for one-site binding (hyperbola) of the GraphPad Prism (version 6.00 for Windows, GraphPad Software, La Jolla Calif. USA). […]
In turn, B1 came in with a Kd of 1.2 nM.
Still for that read-out and setting: the same measure for B2: 1 nM; for B3: 0.3 nM.
Molecule B4 gave a Kd of 0.3 nM.
B5 had a dissociation constant (Kd) of 0.5 nM.
The same measure, in the same setting: the same measure for B6: 0.3 nM; for B7: 0.3 nM.
B8: binding was characterised by a dissociation constant (Kd) of 0.5 nM.
The molecule B9 gave a Kd of 0.9 nM.
Still for that read-out and setting: the same measure for B10: 1.8 nM; for B11: 0.5 nM.

Another test deals with T1, human CD33. Briefly: flow cytometry titration, HL-60 cells. On the procedure: as §1
As to B1, the Kd turned out to be 1 nM.
Same read-out and setting: the same measure for B2: 0.5 nM.
Same read-out and setting: under B3 stands 0.2 nM; under B4, 0.5 nM; under B5, 0.5 nM.
Molecule B6 had a Kd of 0.4 nM. This Kd and that of the molecule before are within 1.5-fold of each other.
B7 gave a Kd of 0.2 nM.
In turn, B8 returned a Kd of 0.3 nM.
Consider B9, for which the Kd came out at 0.6 nM. Against the preceding molecule, the Kd is about 2-fold higher.
B10: the affinity, expressed as Kd, was 1.1 nM.
Regarding B11, binding was characterised by a dissociation constant (Kd) of 0.3 nM. This Kd is about 3.7-fold lower than that of the molecule before.

For the next test, the target named is T1, human CD33. Briefly: flow cytometry titration, U-937 cells. On the procedure: as §1
B1 yielded a Kd of 6.2 nM. This counts as single-digit nanomolar.
The molecule B2 came in with a Kd of 1.7 nM.
On to B3, for which the Kd turned out to be 0.5 nM. This Kd is about 3.4-fold lower than that of the molecule before.
Take B4: the Kd turned out to be 2.2 nM.
In the case of B5, the Kd amounted to 1.7 nM. This Kd and that of the molecule before are within 1.5-fold of each other.
For B6, binding was characterised by a dissociation constant (Kd) of 0.9 nM. This Kd is about 1.9-fold lower than that of the molecule before.
In the case of B7, binding was characterised by a dissociation constant (Kd) of 0.9 nM.
Still for that read-out and setting: under B8 stands 0.6 nM.
B9 displayed a Kd of 7.1 nM. This Kd is about 12-fold higher than that of the molecule before.
B10 had a Kd of 8.9 nM.
Molecule B11 came in with a Kd of 1.8 nM.

The target of the next test is T2, human CD3. Kind of test: flow cytometry titration, T cells (human CD3+).
Take B1: binding was characterised by a dissociation constant (Kd) of 69.5 nM.
The same measure, in the same setting: under B2 stands 1.9 nM; under B3, 55.7 nM; under B4, 2.4 nM.
The same measure, in the same setting: under B5 stands 79.3 nM; under B6, 1.3 nM; under B7, 69.8 nM.
B8 yielded an equilibrium dissociation constant (Kd) of 2.6 nM.
For B9, the Kd was 94.2 nM.
As for B10, binding was put at a Kd of 81.9 nM.
Molecule B11 displayed a Kd of 2.4 nM.

Source of the values: patent US20200262920A1 (AMPHIVENA THERAPEUTICS, published 2020).
